Biological target: the molecule itself
Assay: gel filtration (Superdex 200), self-association into disks

B1: CP.DELTA.N5 PapMV coat protein (recombinant, N-terminal 5 amino acids deleted, alanine inserted at p (other)
chain: MASTPNIAFPAITQEQMSSIKVDPTSNLLPSQEQLKSVSTLMVAAKVPAASVTTVALELVNFCYDNGSSAYTTVTGPSSIPEISLAQLASIVKASGTSLRKFCRYFAPIIWNLRTDKMAPANWEASGYKPSAKFAAFDFFDGVENPAAMQPPSGLTRSPTQEERIANATNKQVHLFQAAAQDNNFASNSAFITKGQISGSTPTIQFLPPPE
notes: also called CPΔN5; CPΔN5 PapMV VLP
  binding result: binds

Source: US20140134202A1 (FOLIA BIOTECH, published 2014)
